B1: LINE1-mini (parent)
chain: GGCAGAGCUCAACACAGCGUGGCAAAGUGGCUGUGGCUAGACUGCC

Variants of: B1
Test: self-cleavage, relative activity (ratio to wild type); higher = more cleavage; in vitro, sequencing; the parent is a self-cleaving ribozyme

Variant | self-cleavage
GGCAGAGCUCAAAACAGCGUGGCAAAGUGGCUGUAGCUAGACUGCC [C13A G35A] | 0.15
GGCAGAGCUCAAAACAGCGUGGCAAAGUGGCUGUCGCUAGACUGCC [C13A G35C] | 0.07
GGCAGAGCUCAAAACAGCGUGGCAAAGUGGCUGUUGCUAGACUGCC [C13A G35U] | 1.13
GGCAGAGCUCAAGACUGCGUGGCAAAGUGGCUGUGGCUAGACUGCC [C13G A16U] | 0.15
GGCAGAGCUCAAGACCGCGUGGCAAAGUGGCUGUGGCUAGACUGCC [C13G A16C] | 0.08
GGCAGAGCUCAAGACGGCGUGGCAAAGUGGCUGUGGCUAGACUGCC [C13G A16G] | 0.01
GGCAGAGCUCAAAACAGCGUGGCAAAGUGGCUGUGACUAGACUGCC [C13A G36A] | 0.23
GGCAGAGCUCAAAACAGCGUGGCAAAGUGGCUGUGUCUAGACUGCC [C13A G36U] | 0.12
GGCAGAGCUCAAAACAGCGUGGCAAAGUGGCUGUGCCUAGACUGCC [C13A G36C] | 0.06
GGCAGAGCUCAAAACAGCGUGGCAAAGCGGCUGUGGCUAGACUGCC [C13A U28C] | 0.15
GGCAGAGCUCAAAACAGCGUGGCAAAGGGGCUGUGGCUAGACUGCC [C13A U28G] | 0.09
GGCAGAGCUCAAAACAGCGUGGCAAAGAGGCUGUGGCUAGACUGCC [C13A U28A] | 0.07
GGCAGAGCUCAAAACAGCGUUGCAAAGUGGCUGUGGCUAGACUGCC [C13A G21U] | 0.23
GGCAGAGCUCAAAACAGCGUCGCAAAGUGGCUGUGGCUAGACUGCC [C13A G21C] | 0.14
GGCAGAGCUCAAGACAGCGUGGCAAAGUGGCUGUGGCUAGACUGCC [C13G] | 0.22
GGCAGAGCUCAAAACAGCGUGGCAAAGUGGCUGUGGCUACACUGCC [C13A G40C] | 0.07
GGCAGAGCUCAAAACAGCGUGGCAAAGUGGCUGUGGCUAAACUGCC [C13A G40A] | 0.09
GGCAGAGCUCAAAACAGCGUGGCAAAGUGGCUGUGGCUAUACUGCC [C13A G40U] | 0.09
GGCAGAGCUCAAAACAGCGUGGCAAAGUGGCUGUGGCCAGACUGCC [C13A U38C] | 0.1

Variant | self-cleavage
GGCAGAGCUCAAAACAGCGUGGCAAAGUGGCUGUGGCAAGACUGCC [C13A U38A] | 0.05
GGCAGAGCUCAAAACAGCGUGGCAAAGUGGCUGUGGCGAGACUGCC [C13A U38G] | 0.03
GGCAGAGCUCAAGUCAGCGUGGCAAAGUGGCUGUGGCUAGACUGCC [C13G A14U] | 0.09
GGCAGAGCUCAAGGCAGCGUGGCAAAGUGGCUGUGGCUAGACUGCC [C13G A14G] | 0.08
GGCAGAGCUCAAGCCAGCGUGGCAAAGUGGCUGUGGCUAGACUGCC [C13G A14C] | 0.05
GGCAGAGCUCAAAACAGCGUGGCAAAGUGACUGUGGCUAGACUGCC [C13A G30A] | 0.08
GGCAGAGCUCAAAACAGCGUGGCAAAGUGCCUGUGGCUAGACUGCC [C13A G30C] | 0.14
GGCAGAGCUCAAAACAGCGUGGCAAAGUGUCUGUGGCUAGACUGCC [C13A G30U] | 0.11
GGCAGAGCUCAAAACAGCGUGGCAAAGUGGCUGUGGCUAGACUUCC [C13A G44U] | 0.12
GGCAGAGCUCAAAACAGCGUGGCAAAGUGGCUGUGGCUAGACUCCC [C13A G44C] | 0.07
GGCAGAGCUCAAAACAGCGUGGCAAAGUGGCUGUGGCUAGACUACC [C13A G44A] | 0.09
GGCAGAGCUCAAGACAGCGUGGCGAAGUGGCUGUGGCUAGACUGCC [C13G A24G] | 0.22
GGCAGAGCUCAAGACAGCGUGGCCAAGUGGCUGUGGCUAGACUGCC [C13G A24C] | 0.07
GGCAGAGCUCAAAACAGCGUGGCAAAGUUGCUGUGGCUAGACUGCC [C13A G29U] | 0.2
GGCAGAGCUCAAAACAGCGUGGCAAAGUAGCUGUGGCUAGACUGCC [C13A G29A] | 0.19
GGCAGAGCUCAAAACAGCGUGGCAAAGUCGCUGUGGCUAGACUGCC [C13A G29C] | 0.06
GGCAGAGCUCAAAACAGCGUGGCAAAGUGGCUGUGGCUAGACGGCC [C13A U43G] | 0.18
GGCAGAGCUCAAAACAGCGUGGCAAAGUGGCUGUGGCUAGACAGCC [C13A U43A] | 0.21
GGCAGAGCUCAAAACAGCGUGGCAAAGUGGCUGUGGCUAGACCGCC [C13A U43C] | 0.08

Variant | self-cleavage
GGCAGAGCUCAAAACAGCGUGGCAAAAUGGCUGUGGCUAGACUGCC [C13A G27A] | 0.18
GGCAGAGCUCAAAACAGCGUGGCAAAUUGGCUGUGGCUAGACUGCC [C13A G27U] | 0.08
GGCAGAGCUCAAAACAGCGUGGCAAACUGGCUGUGGCUAGACUGCC [C13A G27C] | 0.1
GGCAGAGCUCAAAACAGCGGGGCAAAGUGGCUGUGGCUAGACUGCC [C13A U20G] | 0.1
GGCAGAGCUCAAAACAGCGCGGCAAAGUGGCUGUGGCUAGACUGCC [C13A U20C] | 0.04
GGCAGAGCUCAAAACAGCGAGGCAAAGUGGCUGUGGCUAGACUGCC [C13A U20A] | 0.11
GGCAGAGCUCAAAACAGCGUGGCAAAGUGGCUGCGGCUAGACUGCC [C13A U34C] | 0.06
GGCAGAGCUCAAAACAGCGUGGCAAAGUGGCUGGGGCUAGACUGCC [C13A U34G] | 0.03
GGCAGAGCUCAAAACAGCGUGGCAAAGUGGCUGAGGCUAGACUGCC [C13A U34A] | 0.07
GGCAGAGCUCAAAACAGCGUGGCAAAGUGGCGGUGGCUAGACUGCC [C13A U32G] | 0.08
GGCAGAGCUCAAAACAGCGUGGCAAAGUGGCCGUGGCUAGACUGCC [C13A U32C] | 0.09
GGCAGAGCUCAAAACAGCGUGGCAAAGUGGCAGUGGCUAGACUGCC [C13A U32A] | 0.11
GGCAGAGCUCAAAACAGCGUGCCAAAGUGGCUGUGGCUAGACUGCC [C13A G22C] | 0.05
GGCAGAGCUCAAAACAGCGUGACAAAGUGGCUGUGGCUAGACUGCC [C13A G22A] | 0.15
GGCAGAGCUCAAAACAGCGUGUCAAAGUGGCUGUGGCUAGACUGCC [C13A G22U] | 0.11
GGCAGAGCUCAAAACAGCGUGGCAAAGUGGCUUUGGCUAGACUGCC [C13A G33U] | 0.05
GGCAGAGCUCAAAACAGCGUGGCAAAGUGGCUAUGGCUAGACUGCC [C13A G33A] | 0.08
GGCAGAGCUCAAAACAGCGUGGCAAAGUGGCUCUGGCUAGACUGCC [C13A G33C] | 0.06

Reference: the RNAGym collection of RNA variant scans (doi:10.7554/elife.90254)
